Reference: article PMC7948422, “Repurposing p97 inhibitors for chemical modulation of the bacterial ClpB–DnaK bichaperone system” (The Journal of Biological Chemistry, 2020)
*: point of attachment. FITC = O=C1OC2(c3ccc(O)cc3Oc3cc(O)ccc32)c2ccc(NC(=S)*)cc21; Ahx = NCCCCCC(=O)O

Target: T1, full-length E. coli DnaK (residues 1–638) (Escherichia coli, UniProt P0A6Y8 1-638)
T1 construct: DnaK (Hsp70), Escherichia coli, residues 1-638; cloned from pTTQ19dnaK+ into pET28a; source: E. coli BL21(DE3), purified (Q Sepharose, DEAE-Sephacel, Superdex 200)
Assay: fluorescence polarisation; fluorescence anisotropy of FITC-B2 with 1-μM DnaK in buffer C (50-mM Tris-HCl pH 7.4, 20-mM MgCl2, 1-mM EDTA, 0.5-mM TCEP), DBeQ solutions in DMSO added, room temperature, 30-min incubation
Conditions: both partners purified

T1 sequence (P0A6Y8 whole entry, the tested form may be a part): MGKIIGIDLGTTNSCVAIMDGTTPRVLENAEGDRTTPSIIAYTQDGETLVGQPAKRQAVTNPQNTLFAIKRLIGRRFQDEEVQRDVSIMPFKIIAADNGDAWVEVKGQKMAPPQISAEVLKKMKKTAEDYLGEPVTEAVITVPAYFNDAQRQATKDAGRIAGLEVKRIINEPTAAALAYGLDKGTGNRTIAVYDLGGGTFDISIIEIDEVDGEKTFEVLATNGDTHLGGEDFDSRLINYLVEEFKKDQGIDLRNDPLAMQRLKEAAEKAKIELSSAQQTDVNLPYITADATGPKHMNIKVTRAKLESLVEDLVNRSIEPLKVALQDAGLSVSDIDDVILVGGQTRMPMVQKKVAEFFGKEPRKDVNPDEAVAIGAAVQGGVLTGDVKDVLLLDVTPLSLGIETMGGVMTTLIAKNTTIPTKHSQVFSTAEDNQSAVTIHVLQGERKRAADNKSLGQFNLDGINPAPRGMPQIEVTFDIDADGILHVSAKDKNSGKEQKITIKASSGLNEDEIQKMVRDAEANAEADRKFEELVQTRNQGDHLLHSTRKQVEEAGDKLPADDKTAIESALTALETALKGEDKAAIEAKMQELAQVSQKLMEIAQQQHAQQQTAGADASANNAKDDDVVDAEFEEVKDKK

B1: FITC-B2 (FITC-Ahx-QRKLFFNLRKTKQRLGWFNQ-NH2) (peptide)
peptide: {FITC-Ahx}-QRKLFFNLRKTKQRLGWFNQ-NH2
SMILES: CC(C)C[C@H](NC(=O)[C@H](CCCNC(=N)N)NC(=O)[C@H](CCC(N)=O)NC(=O)[C@H](CCCCN)NC(=O)[C@@H](NC(=O)[C@H](CCCCN)NC(=O)[C@H](CCCNC(=N)N)NC(=O)[C@H](CC(C)C)NC(=O)[C@H](CC(N)=O)NC(=O)[C@H](Cc1ccccc1)NC(=O)[C@H](Cc1ccccc1)NC(=O)[C@H](CC(C)C)NC(=O)[C@H](CCCCN)NC(=O)[C@H](CCCNC(=N)N)NC(=O)[C@H](CCC(N)=O)NC(=O)CCCCCNC(=S)Nc1ccc2c(c1)C(=O)OC21c2ccc(O)cc2Oc2cc(O)ccc21)[C@@H](C)O)C(=O)NCC(=O)N[C@@H](Cc1c[nH]c2ccccc12)C(=O)N[C@@H](Cc1ccccc1)C(=O)N[C@@H](CC(N)=O)C(=O)N[C@@H](CCC(N)=O)C(N)=O
notes: peptide B2, substrate-mimicking peptide; also called FITC-labeled peptide B2; substrate-mimicking peptide; source: obtained as described before (65)
B1: binds.
